Reference: IntAct's records for PubMed 26051712

B1: Inner nuclear membrane protein SRC1 (Saccharomyces cerevisiae), Q03707 (parent)
chain: MNSDLEYLEDGFDPNSMKVATLRRILVENNVDFPSNARKNALVGLFDEKVKPQIPQLRKMYLNVRPSDEGIVKMDRPSSSPSIASPRRSRRARREKSASPMAKQFKKNRILDDVSNDDDDDDDDDDDNDKKDDPLIVPSGTDTDEVDDEEDDVITSSSNKSDTNDFQQNSDTRKKRKDPDSDDWSESNSKENKIDNKHLNLLSSDSEIEQDYQKAKKRKTSDLNQEHGNGSAILGKLSVKTPIKNTNRKPVSMDNFNDSLTSSGTENDPFVPNIRHNPKELGTANGTGHSTPLSKLKVSASFADKLPQKEVPSTILVPEVEQQEPSQSERTPSLFSSEGSGSESEAPLLPEITTPGPHQPMGNTSNNVVEMIDTDSSNLVSDEDEVLVPTRIETPQLPTEKDVEKCEARVQELQEEVNEQLEHENGSEFDVKQGSGKVGNRHKFKRALKFLSKSLLALFLFCIFIVIPLLFGLWYREQRLLIGYCGHEVPSHRVSGNSFEFIQKLDNLLQDYRPKCIPCPPNGICYPYLKLKCKPDYKLAPSRLDFLEIIPAQGKCVKDDKKQQLVSEVVEKSLEFLRAKNAQISCGDGKDDIESGMTEDALYQIFNEARAPWIRDDEFEDLWIQVIKDLTEEPEILWRQLSPTDNNIGGNSNNIIKTNDVPRQKRHLPEKFISKTRNFRSTSKKYIGMKCRFEREIYQTYKKFQRPIWLMFLLIVISKVIEIKLKNYYRKKARIEELVTQTMEKLKFQKIKSMSDPKENAYLSIVQLRDIFLSDIVDLKYKNQLWSEVVKYLEHNNSNIKSNLTEIRGEIMKCWEWIGPMELNEPKDSAENKI
B2: Inner nuclear membrane protein HEH2 (Saccharomyces cerevisiae), Q03281 (parent)
chain: MDHRNLDPKTLKVSQLRRVLVENDVAFPANARKPVLVKLFEEKVRQRLQSSPEASKVRTSIQKVVKSGAKNADRKKTLKSKKLESSSSESKTVKDENVETNKRKREQISTDNEAKMQIQEEKSPKKKRKKRSSKANKPPESPPQSKSDGKATSADLTSELETVEELHKKDSSDDKPRVKELPKPELPNLKVSNEFLAQLNKELASAATENYDHSIKSTDLSSIRIETEEPVGPSTGAETRNESEVMENINLEVQPEVKEAKEELTKISETFDNQDEEDTSRLSSKKNIRSPKGRTRHFIANKTKRGIDIMKPFIAHLFIWLWNGAIFLSIICPILFGLWYREQRIQVGYCGHEKPLKSLAISAFPQTERVDSVLQAYRPNCLECPEHGICSSFMNVECEPGYEPKSSILETYGIIPFPKYCAKDESKEKEVDELVWKVNEYLKKKNAQHECGEGENLFESGETETKLYDIFSHSRPSWESQREFNDHWKNVLEILKKKDDIIWLPLDFETNGKREKSKSNNTNYIYRSTSKKWVTLQCHLEGDIQEYITKYGGSLFITLGVLFLIKKIQSTLDNYVQGEQIIEKLVKEAIDKLKDVKKNKGEEPFLTTVQLRATLLSDIPNIKEQNNLWAQTKEKIMKEQSENIELYLLEENGEIMTCWEWKE

Variants of: B1
Conditions: with ima1_yeast SRP1, Q02821
ima1_yeast SRP1, Q02821, sequence (Q02821 whole entry): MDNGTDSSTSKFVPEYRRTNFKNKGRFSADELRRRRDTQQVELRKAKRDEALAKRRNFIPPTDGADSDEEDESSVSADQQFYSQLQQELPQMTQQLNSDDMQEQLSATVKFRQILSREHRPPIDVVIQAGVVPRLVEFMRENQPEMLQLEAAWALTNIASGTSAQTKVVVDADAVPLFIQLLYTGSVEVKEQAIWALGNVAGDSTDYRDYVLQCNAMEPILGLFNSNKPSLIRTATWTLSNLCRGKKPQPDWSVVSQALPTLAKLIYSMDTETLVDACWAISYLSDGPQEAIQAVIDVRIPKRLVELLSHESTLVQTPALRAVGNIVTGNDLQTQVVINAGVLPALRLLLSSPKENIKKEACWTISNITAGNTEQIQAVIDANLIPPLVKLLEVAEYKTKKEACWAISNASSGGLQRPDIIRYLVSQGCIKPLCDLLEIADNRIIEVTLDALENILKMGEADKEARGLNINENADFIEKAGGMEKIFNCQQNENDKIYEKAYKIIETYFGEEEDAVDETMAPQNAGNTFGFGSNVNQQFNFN

Variant | effect of a mutation on the interaction
R176A | decreasing interaction strength
R176A;K190A | decreasing interaction strength

Variants of: B1
Conditions: with ima1_yeast SRP1, Q02821
Remark: another data set of the same source

Variant | effect of a mutation on the interaction
K190A | decreasing interaction strength

Variants of: B2
Conditions: with ima1_yeast SRP1, Q02821

Variant | effect of a mutation on the interaction
R103A | decreasing interaction strength
R103A;K126A | decreasing interaction strength
K126A | decreasing interaction strength
